The text below walks through data of the Human Domainome abundance scans (Beltran et al. 2025).

B1: Far upstream element-binding protein 1, residues 98 to 169; numbered along this chain, Q96AE4 (parent)
chain: RSVMTEEYKVPDGMVGFIIGRGGEQISRIQQESGCKIQIAPDSGGLPERSCMLTGTPESVQSAKRLLDQIVE

± gives the uncertainty stated by the source.

In this series the parent is B1. Nature of the series: abundance fitness (aPCA) (normalised: wild type 0, dead -1); higher = more abundant; growth selection in yeast, the domain comes from the species named. The conditions noted are these: Homo sapiens.
Turning to RWVMTEEYKVPDGMVGFIIGRGGEQISRIQQESGCKIQIAPDSGGLPERSCMLTGTPESVQSAKRLLDQIVE, the abundance fitness is -0.133 ± 0.035.
Regarding RAVMTEEYKVPDGMVGFIIGRGGEQISRIQQESGCKIQIAPDSGGLPERSCMLTGTPESVQSAKRLLDQIVE, the abundance fitness was -0.033 ± 0.027.
The result for REVMTEEYKVPDGMVGFIIGRGGEQISRIQQESGCKIQIAPDSGGLPERSCMLTGTPESVQSAKRLLDQIVE reads -0.007 ± 0.037.
RCVMTEEYKVPDGMVGFIIGRGGEQISRIQQESGCKIQIAPDSGGLPERSCMLTGTPESVQSAKRLLDQIVE: the abundance fitness is -0.085 ± 0.037.
Take RLVMTEEYKVPDGMVGFIIGRGGEQISRIQQESGCKIQIAPDSGGLPERSCMLTGTPESVQSAKRLLDQIVE: the abundance fitness was -0.052 ± 0.027.
The result for RNVMTEEYKVPDGMVGFIIGRGGEQISRIQQESGCKIQIAPDSGGLPERSCMLTGTPESVQSAKRLLDQIVE reads -0.143 ± 0.057; that for RQVMTEEYKVPDGMVGFIIGRGGEQISRIQQESGCKIQIAPDSGGLPERSCMLTGTPESVQSAKRLLDQIVE, 0.015 ± 0.035.
With RKVMTEEYKVPDGMVGFIIGRGGEQISRIQQESGCKIQIAPDSGGLPERSCMLTGTPESVQSAKRLLDQIVE the figure was -0.006 ± 0.039; with RYVMTEEYKVPDGMVGFIIGRGGEQISRIQQESGCKIQIAPDSGGLPERSCMLTGTPESVQSAKRLLDQIVE, -0.087 ± 0.049; with RIVMTEEYKVPDGMVGFIIGRGGEQISRIQQESGCKIQIAPDSGGLPERSCMLTGTPESVQSAKRLLDQIVE, -0.077 ± 0.048.
As to RTVMTEEYKVPDGMVGFIIGRGGEQISRIQQESGCKIQIAPDSGGLPERSCMLTGTPESVQSAKRLLDQIVE, the abundance fitness amounted to 0.012 ± 0.03.
On to RPVMTEEYKVPDGMVGFIIGRGGEQISRIQQESGCKIQIAPDSGGLPERSCMLTGTPESVQSAKRLLDQIVE, for which the abundance fitness is -0.064 ± 0.031.
For the variant RVVMTEEYKVPDGMVGFIIGRGGEQISRIQQESGCKIQIAPDSGGLPERSCMLTGTPESVQSAKRLLDQIVE, the abundance fitness is -0.036 ± 0.029.
On to RGVMTEEYKVPDGMVGFIIGRGGEQISRIQQESGCKIQIAPDSGGLPERSCMLTGTPESVQSAKRLLDQIVE, for which the abundance fitness was -0.003 ± 0.026.
RHVMTEEYKVPDGMVGFIIGRGGEQISRIQQESGCKIQIAPDSGGLPERSCMLTGTPESVQSAKRLLDQIVE: the abundance fitness was -0.15 ± 0.048.
In the case of RMVMTEEYKVPDGMVGFIIGRGGEQISRIQQESGCKIQIAPDSGGLPERSCMLTGTPESVQSAKRLLDQIVE, the abundance fitness came out at 0.038 ± 0.037.
On to RSVMEEEYKVPDGMVGFIIGRGGEQISRIQQESGCKIQIAPDSGGLPERSCMLTGTPESVQSAKRLLDQIVE, for which the abundance fitness worked out at 0.009 ± 0.03.
The result for RSVMDEEYKVPDGMVGFIIGRGGEQISRIQQESGCKIQIAPDSGGLPERSCMLTGTPESVQSAKRLLDQIVE reads -0.149 ± 0.04; that for RSVMAEEYKVPDGMVGFIIGRGGEQISRIQQESGCKIQIAPDSGGLPERSCMLTGTPESVQSAKRLLDQIVE, 0 ± 0.028.
As for RSVMCEEYKVPDGMVGFIIGRGGEQISRIQQESGCKIQIAPDSGGLPERSCMLTGTPESVQSAKRLLDQIVE, the abundance fitness was -0.072 ± 0.036.
As for RSVMFEEYKVPDGMVGFIIGRGGEQISRIQQESGCKIQIAPDSGGLPERSCMLTGTPESVQSAKRLLDQIVE, the abundance fitness is -0.006 ± 0.046.
For RSVMGEEYKVPDGMVGFIIGRGGEQISRIQQESGCKIQIAPDSGGLPERSCMLTGTPESVQSAKRLLDQIVE, the abundance fitness is -0.101 ± 0.024.
For ASVMTEEYKVPDGMVGFIIGRGGEQISRIQQESGCKIQIAPDSGGLPERSCMLTGTPESVQSAKRLLDQIVE, the abundance fitness was -0.125 ± 0.043.
In the case of PSVMTEEYKVPDGMVGFIIGRGGEQISRIQQESGCKIQIAPDSGGLPERSCMLTGTPESVQSAKRLLDQIVE, the abundance fitness was -0.286 ± 0.062.
On to QSVMTEEYKVPDGMVGFIIGRGGEQISRIQQESGCKIQIAPDSGGLPERSCMLTGTPESVQSAKRLLDQIVE, for which the abundance fitness was -0.513 ± 0.14.
The result for HSVMTEEYKVPDGMVGFIIGRGGEQISRIQQESGCKIQIAPDSGGLPERSCMLTGTPESVQSAKRLLDQIVE reads -0.219 ± 0.065; that for WSVMTEEYKVPDGMVGFIIGRGGEQISRIQQESGCKIQIAPDSGGLPERSCMLTGTPESVQSAKRLLDQIVE, -0.269 ± 0.035.
CSVMTEEYKVPDGMVGFIIGRGGEQISRIQQESGCKIQIAPDSGGLPERSCMLTGTPESVQSAKRLLDQIVE: the abundance fitness is -0.013 ± 0.033.
Turning to LSVMTEEYKVPDGMVGFIIGRGGEQISRIQQESGCKIQIAPDSGGLPERSCMLTGTPESVQSAKRLLDQIVE, the abundance fitness is -0.131 ± 0.038.
DSVMTEEYKVPDGMVGFIIGRGGEQISRIQQESGCKIQIAPDSGGLPERSCMLTGTPESVQSAKRLLDQIVE: the abundance fitness stood at 0.042 ± 0.048.
As for GSVMTEEYKVPDGMVGFIIGRGGEQISRIQQESGCKIQIAPDSGGLPERSCMLTGTPESVQSAKRLLDQIVE, the abundance fitness was -0.102 ± 0.031.
On to YSVMTEEYKVPDGMVGFIIGRGGEQISRIQQESGCKIQIAPDSGGLPERSCMLTGTPESVQSAKRLLDQIVE, for which the abundance fitness is 0.011 ± 0.046.
Take VSVMTEEYKVPDGMVGFIIGRGGEQISRIQQESGCKIQIAPDSGGLPERSCMLTGTPESVQSAKRLLDQIVE: the abundance fitness is -0.035 ± 0.036.
In the case of NSVMTEEYKVPDGMVGFIIGRGGEQISRIQQESGCKIQIAPDSGGLPERSCMLTGTPESVQSAKRLLDQIVE, the abundance fitness was 0.043 ± 0.034.
ESVMTEEYKVPDGMVGFIIGRGGEQISRIQQESGCKIQIAPDSGGLPERSCMLTGTPESVQSAKRLLDQIVE: the abundance fitness was -0.194 ± 0.054.
With SSVMTEEYKVPDGMVGFIIGRGGEQISRIQQESGCKIQIAPDSGGLPERSCMLTGTPESVQSAKRLLDQIVE the figure was -0.113 ± 0.028; with KSVMTEEYKVPDGMVGFIIGRGGEQISRIQQESGCKIQIAPDSGGLPERSCMLTGTPESVQSAKRLLDQIVE, -0.081 ± 0.035; with ISVMTEEYKVPDGMVGFIIGRGGEQISRIQQESGCKIQIAPDSGGLPERSCMLTGTPESVQSAKRLLDQIVE, 0.01 ± 0.034.
